# According to patent publication US20140193449A1:
# Target: CD8+ splenocytes from LV-huCEA-vaccinated huCEA transgenic mice (T cell receptors of huCEA-specific CTLs)
# Experiment: flow cytometry, tetramer and anti-CD8 double staining of pooled splenocytes
substance,measurement,value
"PE-conjugated huCEA/H-2Db tetramer specific for EAQNTTYL (SEQ ID NO: 23) immunogenic peptide (iTag, Beckman Coulter) (from UniProt P01899 25-309) (peptide-MHC)",percent of CD8+ splenocytes stained by the tetramer,2.1%
